test: soluble fraction after stress (log2 fold change); higher = more stays soluble; pooled small domains, quantitative proteomics; conditions: stress: pH 4
Method in brief: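 Aggregation propensity is read out as the fold change in how much of each domain remains soluble after acid stress. The custom small-domain libraries were pooled, held at pH 4 and analysed with high-throughput quantitative proteomics. On the log2 scale used, higher values mean more of the domain stayed soluble.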

Going from “HMSSTSTMTVAEATIGRKVKHDKFGEGTIITVADVNGDKKLTIAFNQQGVKMLMLSMAKLEL” to “HMSSVEVWINGKSSGLTSDNRAQILQQLPAESIERIEVIDNPSAKFSAEGSAGIINIVLKKD”, the “soluble fraction (log2)” value rises from -1.05 to -0.177.

“HMSSVRDNGDLELVPGDRIRHDDYGEGRVTAVTGVGSKRIAHAVFDSVGERKLLIKLSPIEKI” and “HMSSWMTKDGKIKPISKWAGVPMTSQQQADYAAGKVVELTNIPDKQGQLNTVYLKFNPEKQRPTTSLNDPR” are within 0.2 log units of each other in “soluble fraction (log2)” value: 0.235 for the first, 0.22 for the second.

Going from “HMSSYETVTLNGQRYFKYKVKSGEGLYAISRMFSTPIAEIIRHNPSSNAGLKNGQELLIPVN” to “HMSSYMQMQLERLESLLQKNDLTDSDKYDIRQLVEDLDKVPESVSPNLVGAYMTIKNRYASVLKTVL”, the “soluble fraction (log2)” value falls from -0.0689 to -0.835.

Going from “HMSTANISIEQAKEIALNHANLTSNQVIFSRTELDYDNGIQKYEVEFYYNNREYSYEINANTGDILGYEQ” to “HMSTANIVVPDVKGKTFEEAKKAIEAEGLTAKAEGDESGVVQKTSPSYGVSVESGSEVTLTLVKSDD”, the “soluble fraction (log2)” value rises from -0.417 to 0.0493.

First: HMSTDNINYKNILIASLLIHAAKIDENYTENEKNIIKKALIELDEIDSKKADEIMILAEKKE
Second: HMSTGYEMVREVANQGSFSKAANSLGVSGPAVSKQVKSLEERLGLVLFHRTTRAVSLTQAGRQLVDVLN
The “soluble fraction (log2)” value of the first is lower: -0.271 for the first, -0.036 for the second.

Going from “HMSTIKEKIIQYLDFKGISKYDFYQKTGVSNGVLSQKSGMSEDNIMRFLSYYDDINTDWLFYGKGEMIKT” to “HMSTKLLEVNIFDDSKWVNKTIMDSDIPEDILIVMIKRGDEVIVPKGSTIINKGDILVLSANNFDNLLN”, the “soluble fraction (log2)” value falls from -1.37 to -1.97.

Compared with “HMSTMTEQEAFGLWERINDFIARTGNEPNRNSNDAHEVRMAEALNFIRIKVAEQRNSQSNSEAQNN”, “HMSTNDIFISGDKLVLKNTTGQMDVFDMAGRKVLSSTNNVSEMNVSSLPKGVYVVSASIGGSKMKAKVYK” is higher in “soluble fraction (log2)” value: -1.39 for the first, 0.0276 for the second.

Going from “HMSTQGRRIEILRHLTQTKKKADVNFVELGRTFGTSDTTIRKDLDWLIKNEYWENHGEWKPTQAGLNMI” to “HMSTRKAFVNGDGVRLRSGPGTNHSIRASLTKGQTVFVTGTKDGWASVSVQGGASGWVSADLLKYE”, the “soluble fraction (log2)” value rises from -0.00179 to 0.237.

Going from “HMSTRYVRTPAGQAEIQARVFKLSRPVRNLLLVINDSRSIDDWLVQVHGITADDVAMLRAEGLIAEVS” to “HMSTSEQVYTTDKVNVRREADTSSEKLGSLEKGTAISRTGTEGEWSVVNYGGVTGYIKTEFLTTEQPQ”, the “soluble fraction (log2)” value rises from -0.214 to 0.224.

Compared with “HMSTSFQVQVSVLDLRIRKEPTVKGQEVGKISKGIHTITETRSADGYTWGKLESGQGWIALEFTTKLD”, “HMSTSLIEFTIDRNNSIANKMIMDANIPEDILVVMIKRNGDVFVPNGSTKILPGDILVLSGNKLKY” is lower in “soluble fraction (log2)” value: 0.0132 for the first, -0.785 for the second.

“HMSTTDGIERFLASGAVKGIGRTMAARIVEHFGSRTLTVMESEPERLTEVAGIGRKKAESIAASYAELS” and “HMSTTYAPYLLGETEQEAIRMARNAGLDPQVVRQSDKSEAGTVILQSHDFGFAMKRGAVILITVSSGPLQ” are within 0.2 log units of each other in “soluble fraction (log2)” value: -0.137 for the first, -0.0322 for the second.

First: HMSTVTEVHYIAFKNGRIVDIKAALTGSAVTATSIKEQPKIENYNYTTSEVRDGILYHTYAPVA
Second: HMSVADNALSRQAIESRIALFIQNEDPNHPRSDADIQKELAQAGVVISRRAITKYRNHLHIPSASLRRR
The “soluble fraction (log2)” value of the first is higher: 0.195 for the first, -0.12 for the second.

“HMSVAPISYSQFESYLEQGKVASVAVGQDTIAGRFTAPVDGKSQFVTTIVNPQILDRIDKSGVEITGV” and “HMSVAVKAPLQGTVMKVNVKPGDTVTKGAPVAVIEALKMENDVPAPQDGVVASVDVKSGDSVKTDQVLLTL” are within 0.2 log units of each other in “soluble fraction (log2)” value: -0.175 for the first, -0.00426 for the second.

First: HMSVDAMDEANERKMAKTFNMIVLGGLLKIRPIVSIESVIKALRKTLPERHHHLIPMNEEAIHIGMDII
Second: HMSVDDEQLLKIIDDIFQQNPQAVTDAKTDSNAIHFLIGQVMKETKGHADHAISKEIIEKKLS
The “soluble fraction (log2)” value of the first is higher: -0.288 for the first, -0.726 for the second.

“HMSVDEVEALYLKIAEDRLEGKLPDKVSESDLMRRYGLTKAQLGAILQRIVHEGWIERTPGHGWRFLPIL” and “HMSVFMIIVLKQHAPQEFVDMLMSSIKAKGVQIDVSKGARKTILGLVGNTSVIDREQIAGYEYVDKVIRV” are within 0.2 log units of each other in “soluble fraction (log2)” value: -0.368 for the first, -0.289 for the second.

First: HMSVFTDIYHQADHETKLMLIHEIKIVGDEKEFRLLKSIIDSTSNDLSKEANDALNAIKIRLALSK
Second: HMSVFTPLTRSELETFLAPYELGRLLDFQGIAAGSENTNYFISLEKGEYVLTLVERGPVAEMPFFIELLD
The “soluble fraction (log2)” value of the first is higher: -1.25 for the first, -1.49 for the second.

Going from “HMSVGDLLENLIRETRAQFSAPPESLGVAEKRRFVALLSQKGGFLLKGAVSRAASVLGVSEQTVYRYLKDS” to “HMSVGDLPPEAREIWKLLDGRELSLDLLAEETGRETGALLSTLMMLEMKLLVEHGSDMVYRRIPRR”, the “soluble fraction (log2)” value falls from 0.0671 to -1.62.

Compared with “HMSVHSAELKKLKAHLLGIIGRELETQPSTENREEMVRQILHQSYESLRLNLPMQLKEELFNEILAEVL”, “HMSVLEHVSGNVRRLRLQAGLSQEALARAASVSRRMLVGIESGDVNVSLSTLDRIAAALGVLFPDLVQAP” is higher in “soluble fraction (log2)” value: -0.689 for the first, -0.392 for the second.

“HMSVLPAREQVAAILRQAILLRKFKEGQDLTLKDAAELVGSSITPVREAFQILENEGLIELRPNKGAVVL” and “HMSVPEDLYFRELEVEGNKVRISGIASTNNRVSALMRNFDQSEWFRDPSLIKVESKSPGVNEFEIVMTRI” are within 0.2 log units of each other in “soluble fraction (log2)” value: -0.616 for the first, -0.761 for the second.

First: HMSVPNVVGRDQVEASSLLESAGFKVSVKQSYSDSVEQGKVISQSPSGSTTVSPGSTVTITVSQ
Second: HMSVPRPSAVEVTSLVTGVRDLLPHLGEGYVERVLVEFGFKVDETINALLEGNLPKHLQDLDPSLTKEI
The “soluble fraction (log2)” value of the first is higher: -0.155 for the first, -1.25 for the second.

Compared with “HMSVPVDEVLAALTQKLTDLRTQAMAAKDFSAVDALKAALTEAGVEVRMSKTGVELIAGPRVDAKKLGTL”, “HMSVRPMVEILRVVGSPSPVWVTWARNRAAWLYETGIRPQQRLRMADGTEVLIRLVGEFAHILVVGG” is higher in “soluble fraction (log2)” value: -0.268 for the first, 0.0642 for the second.

First: HMSVSATQMDAFVRQLRARLSSADGLDDAARLVRQDLEPFLGRFSDETERDFAAAIEQVRGSIRPVEI
Second: HMSVSEAELAEKYHADDLEALKSGKLHEFQENLIDRNGKKYTVQTMKDILTLSDGTRLLLGIGLD
The “soluble fraction (log2)” value of the first is lower: -1.73 for the first, -0.0916 for the second.

“HMSVTDDQLRVFTNKSGTKIKAKIVEVSDDKVKLIRDDNKKFIVPINSLSEEDQDYLRDWVSNEAVEP” and “HMSVTIDAGGKVYLQESEIADDQLVPRLVAISNNGYDKPIYLRADKTVGYGRVAEVMSLLNAAGFTKLVLV” are within 0.2 log units of each other in “soluble fraction (log2)” value: -0.0786 for the first, -0.244 for the second.

First: HMSVTRELMLVKVKVTPEQRAGVSAIVDIFRANIIDVGKESMIIELTGNKSKLEAFIDLLDGYEILELART
Second: HMSVTVPDVKRMQAEDAKALLSRYRLRSEVIDSVYVDNIPRGAVVEQIPRENSSVKENRIVFLTINSN
The “soluble fraction (log2)” value of the first is lower: -0.865 for the first, -0.546 for the second.

Going from “HMSVTYRYSYVYNGNTYSDGWSVRRAIENNENKRFGPEPSDLDHEAQKQARVTFWAEHGVEYKEQEVV” to “HMSVYIGVDQAKSIAAEHAGLSNSAVTFSKAKLENDDGMTVYEVEFFYQGTEYDYKIDASTGSILEYDLDR”, the “soluble fraction (log2)” value rises from -0.423 to -0.0157.

Compared with “HMSWEDSLLKQAREIIDMYPQKRSAVGPLLHLAQSKDGYISDDSISVISKLVGITEVQLKSVSTFYSMYK”, “HMSWEELLEHLEKAAERGEEVRIAGVTLHDEEDFKRALRWLKEWL” is lower in “soluble fraction (log2)” value: -1.23 for the first, -1.47 for the second.

Going from “HMSYIGEEKAKSIAVSNVKGAGTNNVVKVEFDYDDGRAVYEVKVVYNAMEYEFEIDASNGKILSRDAESIY” to “HMSYKFDSLAIILNKLDGKETVNVSSLSDELEVSARTVHRYIGTLQVAGFPIEYDKTKNSYIFSEGYTL”, the “soluble fraction (log2)” value falls from -0.027 to -1.05.

First: HMSYQFKIKNNAAVEVTVSEKNNLLGSTYGDKATVAAGMEKNVTFYTDKPDVVVDTNGNFTITVHDKEIII
Second: HMSYSYIYNYALKVKMDISSTGGKKPYAYYYYDHSYKLAEEILSLSEETESIELQNKYDELKDFYENP
The “soluble fraction (log2)” value of the first is higher: -0.221 for the first, -1.04 for the second.

First: HMSYTWHDMYLLAQEYQKEHGNLIIPRNYKGKNGLNLGYWLYKEKLKYRQGKLAPEKIIALEHIGIVWT
Second: HMSYYKEMIRLADSIADKAHEGQTDRNGWPYISHPRRVALGARKLVSEMASSTSPDTSLEELKAEVQIVAL
The “soluble fraction (log2)” value of the first is higher: 0.22 for the first, 0.00833 for the second.

First: HMTAAPEVRVEGLFKGAAVLKIDGQQVMLKKGRSHSSGVTLVDANAHRAIVEIDGQRHELALHMA
Second: HMTADIRFLNSRKFYIYKVEKGETLFSISQKFNIPQEEIIQFNKDINQQGLKAKTKLWVPAYSWL
The “soluble fraction (log2)” value of the first is higher: 0.0925 for the first, -0.43 for the second.

First: HMTAGTGIAYSEFRSKVQEGQVKDVAIAPDRITGTLSSGQKFSTVPVNDPGLPKMLDDFNVKYSGQA
Second: HMTAIWKTITATLTHDIATGKYAPGDRLPTEAQLAARFGVNRHTVRRAISDMNESGLTYSRRGAGVFVAQ
The “soluble fraction (log2)” value of the first is lower: 0.22 for the first, ≥ 0.43 for the second.

“HMTALAVGDRVKMDKSATIYGTMRKFAAWVYATKLYVRGIDGNRVVVSTLKSGAITGAVDKKHLTK” and “HMTAMDTQQKKLIIMYHDIHRLRNVEHFTIQRIADHLLLNFRTVKKFLEMTQEEFDKFSENRW” are within 0.2 log units of each other in “soluble fraction (log2)” value: -0.0515 for the first, -0.0481 for the second.

Compared with “HMTANPSTEEIMARVEAIPLPIKRLPPGQIVQAQTVAATVLRSNPGLDLAKAWKLAYATVTGQE”, “HMTANTQVENIRLELQRYMDEHGISQVTVARGIGKTHPVISQFLNNKYPGDVEEVARAIESWLTKQHEKAA” is higher in “soluble fraction (log2)” value: -0.00256 for the first, 0.381 for the second.

Compared with “HMTAPELGIRQDGNTLVIFWPSSVTGYVLKSADAVDTPPASWTSVTHTTVGDEHRAEITPTGNSRFFRLV”, “HMTAPQAQDYARVPDVLGLDMRESAQALRLDGFEMNAQGDGLAARQSPIGGSYAPEGTQVLVTFEM” is higher in “soluble fraction (log2)” value: -0.492 for the first, -0.0592 for the second.

Compared with “HMTAQLAAQERTHALDMFMGGYKFSSKPAENGVRAEFEKKNFTLEDGKFLGGDEFMKSLMENDDYKGAFV”, “HMTASKSTVSTPEKVVYHIVFPKETKYSIAKKYGITIEELEKRNPEIIPSLSVGQKLVIKGTAPK” is higher in “soluble fraction (log2)” value: -0.509 for the first, 0.173 for the second.

“HMTATDRQLQLIAYTAARLMAEQGIADFNAAKRKAIQTLGLPNNAKLPGNADVEAQLRAYQRIF” and “HMTATKDLPFSTFITEVEKGNITSVDIKGNQIEGTFSNGAKFKTYSPNYPNLVERLADKGVAISAGPS” are within 0.2 log units of each other in “soluble fraction (log2)” value: 0.0539 for the first, 0.141 for the second.

First: HMTAVPADVETVTGFTALDRAGLDTLLARLGLAMDLEDLSFLQAYFRDTERRDPTLTEIRVVDTYWSDH
Second: HMTDAEQHEALLFKQVVDGLPQTLRDTFVLSRHAGMTYAEISAHTGTPIKTVESRMAKALELIAQRMR
The “soluble fraction (log2)” value of the first is lower: -1.44 for the first, 0.0158 for the second.

For “HMTDDALIGKTAQVTVAIKPGSVGQITARVGDERVERLARASADAEIAAGSLVTIKSIAGDSVIVAPE”, the “soluble fraction (log2)” value was 0.22.

From the domain aggregation screens of Martell et al. (2025)
